Data reported in the nanobody polyreactivity screen of Harvey et al. (2022).

Experiment: yeast display, Sf9 membrane polyspecificity reagent, FACS + sequencing; frameworks hold sequencing errors
Outline: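 After 36–48 hours of galactose induction, yeast (Saccharomyces cerevisiae BJ5465) displaying a synthetic nanobody library were stained at 4 °C for 1 hour with 10% biotinylated, detergent-solubilized Sf9 membrane reagent. Streptavidin microbeads enriched the stained cells before FACS sorting into low and high (top ~1%) gates on anti-HA and streptavidin fluorescence. Each clone's polyreactivity label reflects its gate of origin.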

Row | Sequence | polyreactivity (PSR sort gate)
1 | QVQLVESGGGLVQAGGSLRLRCAASGRIFRPYTMGWYRQAPGKERELVAGITSSGGGTYYADSVKGRFTISRDNAKNTVYLHMNSLKPEDSAVYYCNRRGWSRTHQYDYWGQGTQVTVSS | high polyreactivity
2 | QVQLVESGGGLVQAGGSLRFICAASGFSLYHYAMGWYRQAPGKERELVAAITTSGSRTYYADSVKGRFTISRDTAKITVYLQMNSLKPEDTAVYYCNAVASSTEYDYWGQGTQVTVSS | high polyreactivity
3 | QVQLVESGGGLVQAGGSLSLSCAASGIIIYEYAMGWYRQAPGKEMELVAAISNGGSTYYADSVKGRFTISRDNAKNTVYLQMNSLKPEDTAVYYCAARGYFDALFDYWGQGTQVTVSS | low polyreactivity
4 | QVQLVESGGGLVQAGGSLRLSCAASGSTFHLYAMGWYRKAPGKEREFVAAIRGRGGNTYADSVKGRFTISRDNAKNTVYLQMNSLKPEDTAVYYCAAPLLRDLRSPYSYNYWGQGTQVTVSS | low polyreactivity
5 | QVQREESGGGLVQAGGSLRLSCAASGSIFVGNAMGWYRQAPGKESELVAAITASGTSTYYADSVKGRFTISRDNAKNTVYLQMNSLKPEDTAVYYCNAVQLVYDQYRYDYWGQGTQVTVSS | high polyreactivity
6 | QVQLVESGGGLVQAGGSLRLSCAASGSIFRGNAMGWYRQAPGKERELVAAINKSGGSTYYADSVKGRFTISRDNAKNTVYLQMNSLKPEDTAVYYCAAVYKRLQPYGYWGQGTQVTVSS | high polyreactivity
7 | QVQLVESGGGLVQAGGSLRLSCAASGSIFLPNAMGWYRQAPGKERELVAVITGGGSTKYADSVKGRFTISRDNAKNTVYLQMNSLKPEDTAVYYCNAQSPVDPSCDYWGRGTQVTVSS | low polyreactivity
8 | QVQLVESGGGLVQAGGSLRLSCAASGRTITRNAMGWYRQAPGKERELVASINRGGITYYADSVKGRFTISRDNAKNTVYLQMNSLKPEDTAVYYCATRPWRSPWGYYDYWGQGTQVTVSS | high polyreactivity
9 | QVQLVESGGGLVQAGGSLRLSCAASGIIFSGYAMGWYRQAPGKERELVAAISSRGGGTYYADSVKGRFTISRDNAKNTVYLQMNSLKPEDTAVYYCNRVAFTYNYWGQGTQVTVSS | high polyreactivity
10 | QVQLVESGGGLVQAGGSLRLSCAASGRTFLPYAMGWYRQAPGKERELVAAITYSGGRTYYADSVKGRFTISRDNAKNTVYLQMNSLKPEDTAVYYCAASLWFGGGYWGLGTQVTVSS | high polyreactivity
11 | QVKLVESAAGLVQAGGSLRLSCDASGFTFALYANGLYIQAPRKERELVAVITYCGGRTYYADSVKGRFTISRVNAKNTVYLLMYSLKPEDTAVYYCNARYRQKGLYGTAFDYWGQGTQVTVSS | high polyreactivity
12 | QVQLVESGGGLVQAGGRLRLSCAASVSIFNPYTMGWYRQAPGKERELVAAISYRGGSTYYADSVKGRFTISRDNAKNTVYLQMNSLKREDTAVYYCAAQVRYLGYRYDYWGQGTQVTVSS | high polyreactivity
13 | QVQLVESGGGLVQAGGILRLSCAASGRTFTPYALGWYRQAAGKERDLVAAISSRGGSTYYADSVKGRFTISRDYAKNTVDLQMNSLKPEDTAVYYCNATQYPAADRYTNNYGGGFDYWGQGTQVTVSS | low polyreactivity
14 | QVQLVESGGGLVQAGGSLRLSCAASGRTFSIYAMGCYRQAPGKEREFVAAIRDRGTSTYYADSVKGRFTISRDNAKNTVYLQMNSLKPEDTGVFYCAAVRPYKYQDRDYWGQGTQVTVSS | high polyreactivity
15 | QVQLVESGGGLVQAGGSLRLSCAASGSTFEDYAMGWYRQAPGKERELVAVITGNGGSTNYADSVKGRFTISRDNAKNTVYLQMNSLKPEDTAVYYCAADFYTFVRSDYWGQGTQVTVSS | low polyreactivity
16 | QVQLLESGGALVQAVGSLRLSCMASGSILGDRMSWYRQAPGKEHELVATIYDGGITYYADSMKGRFTISRDNAIHTVYLQMNSLRPEDTAVYYCGASLEGYRYNVYCGQGTQVTVSS | low polyreactivity
17 | QVQLVESGGGLVQAGGSLRLSCAASGFTFQYYAMGCYRQAPGKERELVAAISARDGSTYYADSVKGRFTISRDNAKNTVYLQMNSLKPEDTAVYYCAARSNYRNAYAYYYWGQGTQVTVSS | high polyreactivity
18 | QVQLVESGGGLVQAGGSLRLSCAASGSSFTPNALGWYRQAPGKERELVAAISSSSDRTYYADSVKGRFTISRDNAKNTVYLQMNSLKPEDTAVYYCNARTEYASSRYYYWGQGTQVTVSS | high polyreactivity
19 | QVQLVESGGCLVQAGGSLRLSCAASGITFRYYAMGWYRQAPGKERELVATISYSGGTTYYAESVKGRFTISRDNAKNTVYLQMNSLKPEDTAVYYCKAVYRYKYGYRDYDYWGQGSQVTVSS | high polyreactivity
20 | QVQLVESGGGLVQAGGSLRLSCAASGRTFTYNAMGWYRQAPGKDRELVASIRRSGTITYSADSVKGRFTISRDNAKNTVYLQMNSLKPEDTAVYYCAARYPWYRYYSWGQGTQVTVSS | high polyreactivity
21 | QVQLVESGGGLVQAGGSLRLSCDASGRIFYGYVMGWYRQAPGKERELVAAINQSGTSTYYADSVKGRFTISRDNAKNTVYLQMNSLKPEDTAVYYCAADQVGWTYDYWGQGTQVTVSS | low polyreactivity
22 | QVQLVESVGGLVQAGGSLRLSCAASGLTCYGKTMGWYRQAPGKDRELVAAISFDGGNTYADSVKGRFTISRDNAKNTVYLQMNSLKPEDTAVYYDYWGQGNQVTVSS | low polyreactivity

Row | Sequence | polyreactivity (PSR sort gate)
23 | QVQLVESGGGLVQAGGSVRLSCAASGSTIPPKVMGWYREAPGKEREWVAAISWGGSSTYYADSVKGRFPISRDHAKNTVFVQKNCLQREETAVYYCNAEYRSPVYWWYYEYDYWGQGTQVTVSA | high polyreactivity
24 | QVHLVESVGGLVQAGGSLRLSCAASGFIYKPYAMGWYRQAPGKERELVAAITVNGCTTYYADSVKARFTISRDNAKNTVYLQMNSLKPEDTAVYYCNRGSPGGPSWYHYDYWGQGTQVTVSS | high polyreactivity
25 | QVQLVESGGGLVQAGGSLRLSCAASGSTFVPYTMGWYRQAPGKERELVAAISGSGGTDYADSVKGRFTISRDNAKNTVYLQMNSLKPEDTAVYYCAADPQYWRFYSYGGGDDYWGQGTQVTVSS | low polyreactivity
26 | QVQLVESGGGLVQAGGSLRLSCAASGLIFYIYMGWYRQAPGKESELVAVISSSGNSTYYADSVKGRFTISRYNAKNTVYLQLNSLKPEDTAVYYCNASAYYPPSSSRYYYWGQGTQVTVSS | low polyreactivity
27 | QVQLVESGGGLVQAGGSLRLSCAASGINFSPYAMGWYRQAPGKERELVAAISYSGGSTYYADSVKGRFTISRDNAKNTVYLQMNSLKPEDTAVYYCAVVYSYYLAVLGYWDYDYWGQGTQVTVSS | low polyreactivity
28 | QVQLVESGGGLVQAGGSLRLSCAASRRTFYEYAMGWYRQAPGKERELVAAITRSGGSTYYADSVKGRFTISRDNAKNTVYLQMNSLKPEDTAVYYCAAYRHQYRVRYYTAYDYWGQGTQVTVSS | high polyreactivity
29 | QVQLVESGGGLVQAGGSLRLSCAASGRIFHYNAMGSYRQAPVKERELVAAISTGGSTNYADSVKGRFTISRDNAKNTVYLQMNSLKPEDTAVYYCAAGPDPLGEDYWGQGTQVTVSS | low polyreactivity
30 | QVQLVESGGGLVQAGGRLRLSCAASGSIFVGYAMGWYRQAPGKERELVAAISTRGGSTYYAHSVKGRFTISRDNAKNTVYLQMNSLKPEDTAVYYSAADYLDSTYGYVYGWDDYWGQGTQVTVST | low polyreactivity
31 | QVQLVESCGGIVQAGGSLRLRCAASGFIFEYYAMVWYRQAPGKERELVAAINWGGGRTRYADSVKGRFTISPYNAKNTVYLQMNSLKPEDTAVYYCAARYGYRYDSWGQGTQVTVSS | high polyreactivity
32 | QVQHVESVGGLVQAGGSLRLSCAASGSTFARYVMGWYRQAPGKEWELVAVISRSGGSTYYADSVKGRFTISRDNAKNTVYLQMNSLKPEDTAVYYCNARSSNYWWYYYWGQGTQVTVSS | high polyreactivity
33 | QVQLVESGGGLVQAGGSLRLSCAASGSIFSFYAMGWYRQAPGKEREFVAAITISDDSTYYADSVKGRFTISRDNAKNTVYLQMNSLKPEDTAVYYCNARYLSWYFKYLYDYWGQGTQVTVSS | low polyreactivity
34 | QVQLVESGGGLVQAGGSLRLSCAASGFTFETNAMGWYRQEPGQERELVAAISYSGGSTYYADSVKGRFTISRDNAKNTVYLQMNSLKPEDNAVYYCNKYYRGIFKAHRDYWGQGTQVTVSS | low polyreactivity
35 | QVQLVESGGGLVQAGGSLRLSCAASGFIFAWNAMGWYRQAPGKERELVASISSGGGSTYYADSVKGRFTISRDNAKNTVYLQMNSLKPEDTAVYYCAASYAYLRGLHYYKYDSWGQGTQVTVSS | low polyreactivity
36 | QVQLVESGGGLVQAGGSLRLSCAASGSTLWGYVMGWYRQAPGKERELVAVISKSGGSTYYADSVKGRFTISRDNANNTVYLQMNSLKPEDTAVYYCATRWPYRSDWGQGTQVTVSS | high polyreactivity
37 | QVQLVESGGGLVQAGGSLRLSCAASGITFYVNAMGWYRQAPGKERELVAAISRSGGSTYYADSVKGRFTISRDNAKNTVYLQMNSLKPEDTAVYYCNKEDYGLYPYYVSVGYDYWGQGTQVTVSS | low polyreactivity
38 | QVQLLESGGGLVQAGGSLRLSSAASGSILDHYAMGWYRQAPGNEREFVAAISIRGGSTYYADSVKGRFTISRDNAKNTVFLQMNSLKPEDNAVYYCAATAQYGRDSWSSYRMFPPYDYWGQGTEVTVSS | low polyreactivity
39 | QVQLVESGGGLVQAGGSLRLSCAAYGSTLATNAMGWYRPAPGKERELVAYADSVKGRFTISRDNAKNTVYLQMNSLKPEDTAVYYCAKDALVIDGGGGYDYWGQGTQVTVSS | low polyreactivity
40 | QVQLVESGGGLVQAGGSLRLSCAASGSTFYSYAMGWYRQAPGKDRELVAAISSSSGTTYYADSVKGRFSISRDNAKTTVYLQMNSLKPEDTAVYYCNRGRRYSHKYDYWGQGTQVTVSS | high polyreactivity
41 | QVQLVESGGGLVQAGGSLRLSCAASGRTFARYAMGWYRPAPGKERELVASITRTGGSTYYADSVKGRFTISRDNAKNTVYFQLNSLKPEDTAVYDCATQSWKVRSKMDYWGQGTQVTVSS | high polyreactivity
42 | QVQLVESGGGLVQAGGSLRLSCAASGSIFLYNAMGWYRQAPGKERELVAAISKSGGSTYYADSVKGRFTISRDNAKNTVYLQMNSLKPEDTAVYYCAAGYGRRIRYGSEYDYWGQGTLVTVSS | low polyreactivity
43 | QVQLVESGGGLVQAGGSLRLSCAASGRTFAFYTMGWYRQAPGKERELVAAITRTGSTSYADSVKGRFTISRDNAKNTVYLQMNSLKPEDTAVYYCATVGYPYTLWHQMDYWGQGTQVTVSS | low polyreactivity
